Data on one molecule can be found in PMC2771690 (Molecular cell, 2009).

For the assay, the target named is T1, proliferating cell nuclear antigen (PCNA), yeast (yeast, UniProt P15873 1-258).
T1 sequence (looked up): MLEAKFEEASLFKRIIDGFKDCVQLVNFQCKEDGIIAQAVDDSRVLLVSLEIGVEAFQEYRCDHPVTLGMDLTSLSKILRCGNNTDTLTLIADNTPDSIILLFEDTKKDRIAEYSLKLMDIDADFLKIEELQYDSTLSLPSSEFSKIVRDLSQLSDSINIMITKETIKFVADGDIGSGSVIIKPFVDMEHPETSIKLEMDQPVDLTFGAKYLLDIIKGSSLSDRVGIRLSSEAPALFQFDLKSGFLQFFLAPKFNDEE
The experiment in a line: pull-down.

B1: GST-PINIT (Siz1 aa 172-315 as a C-terminal fusion to GST), wild-type (domain or fragment, S. cerevisiae, UniProt Q04195 172-315, looked up)
chain: VPTIHFKESPFYKIQRLIPELVMNVEVTGGRGMCSAKFKLSKADYNLLSNPNSKHRLYLFSGMINPLGSRGNEPIQFPFPNELRCNNVQIKDNIRGFKSKPGTAKPADLTPHLKPYTQQNNVELIYAFTTKEYKLFGYIVEMIT
With B1, the binding result is “binds”.
